The source of these data is IntAct's records for PubMed 31412244.

First the molecules themselves.
B1: Autophagy-related protein 2 homolog A (Homo sapiens), Q2TAZ0 (parent)
chain: MSRWLWPWSNCVKERVCRYLLHHYLGHFFQEHLSLDQLSLDLYKGSVALRDIHLEIWSVNEVLESMESPLELVEGFVGSIEVAVPWAALLTDHCTVRVSGLQLTLQPRRGPAPGAADSQSWASCMTTSLQLAQECLRDGLPEPSEPPQPLEGLEMFAQTIETVLRRIKVTFLDTVVRVEHSPGDGERGVAVEVRVQRLEYCDEAVRDPSQAPPVDVHQPPAFLHKLLQLAGVRLHYEELPAQEEPPEPPLQIGSCSGYMELMVKLKQNEAFPGPKLEVAGQLGSLHLLLTPRQLQQLQELLSAVSLTDHEGLADKLNKSRPLGAEDLWLIEQDLNQQLQAGAVAEPLSPDPLTNPLLNLDNTDLFFSMAGLTSSVASALSELSLSDVDLASSVRSDMASRRLSAQAHPAGKMAPNPLLDTMRPDSLLKMTLGGVTLTLLQTSAPSSGPPDLATHFFTEFDATKDGPFGSRDFHHLRPRFQRACPCSHVRLTGTAVQLSWELRTGSRGRRTTSMEVHFGQLEVLECLWPRGTSEPEYTEILTFPGTLGSQASARPCAHLRHTQILRRVPKSRPRRSVACHCHSELALDLANFQADVELGALDRLAALLRLATVPAEPPAGLLTEPLPAMEQQTVFRLSAPRATLRLRFPIADLRPEPDPWAGQAVRAEQLRLELSEPQFRSELSSGPGPPVPTHLELTCSDLHGIYEDGGKPPVPCLRVSKALDPKSTGRKYFLPQVVVTVNPQSSSTQWEVAPEKGEELELSVESPCELREPEPSPFSSKRTMYETEEMVIPGDPEEMRTFQSRTLALSRCSLEVILPSVHIFLPSKEVYESIYNRINNDLLMWEPADLLPTPDPAAQPSGFPGPSGFWHDSFKMCKSAFKLANCFDLTPDSDSDDEDAHFFSVGASGGPQAAAPEAPSLHLQSTFSTLVTVLKGRITALCETKDEGGKRLEAVHGELVLDMEHGTLFSVSQYCGQPGLGYFCLEAEKATLYHRAAVDDYPLPSHLDLPSFAPPAQLAPTIYPSEEGVTERGASGRKGQGRGPHMLSTAVRIHLDPHKNVKEFLVTLRLHKATLRHYMALPEQSWHSQLLEFLDVLDDPVLGYLPPTVITILHTHLFSCSVDYRPLYLPVRVLITAETFTLSSNIIMDTSTFLLRFILDDSALYLSDKCEVETLDLRRDYVCVLDVDLLELVIKTWKGSTEGKLSQPLFELRCSNNVVHVHSCADSCALLVNLLQYVMSTGDLHPPPRPPSPTEIAGQKLSESPASLPSCPPVETALINQRDLADALLDTERSLRELAQPSGGHLPQASPISVYLFPGERSGAPPPSPPVGGPAGSLGSCSEEKEDEREEEGDGDTLDSDEFCILDAPGLGIPPRDGEPVVTQLHPGPIVVRDGYFSRPIGSTDLLRAPAHFPVPSTRVVLREVSLVWHLYGGRDFGPHPGHRARTGLSGPRSSPSRCSGPNRPQNSWRTQGGSGRQHHVLMEIQLSKVSFQHEVYPAEPATGPAAPSQELEERPLSRQVFIVQELEVRDRLASSQINKFLYLHTSERMPRRAHSNMLTIKALHVAPTTNLGGPECCLRVSLMPLRLNVDQDALFFLKDFFTSLVAGINPVVPGETSAEARPETRAQPSSPLEGQAEGVETTGSQEAPGGGHSPSPPDQQPIYFREFRFTSEVPIWLDYHGKHVTMDQVGTFAGLLIGLAQLNCSELKLKRLCCRHGLLGVDKVLGYALNEWLQDIRKNQLPGLLGGVGPMHSVVQLFQGFRDLLWLPIEQYRKDGRLMRGLQRGAASFGSSTASAALELSNRLVQAIQATAETVYDILSPAAPVSRSLQDKRSARRLRRGQQPADLREGVAKAYDTVREGILDTAQTICDVASRGHEQKGLTGAVGGVIRQLPPTVVKPLILATEATSSLLGGMRNQIVPDAHKDHALKWRSDSAQD
partner: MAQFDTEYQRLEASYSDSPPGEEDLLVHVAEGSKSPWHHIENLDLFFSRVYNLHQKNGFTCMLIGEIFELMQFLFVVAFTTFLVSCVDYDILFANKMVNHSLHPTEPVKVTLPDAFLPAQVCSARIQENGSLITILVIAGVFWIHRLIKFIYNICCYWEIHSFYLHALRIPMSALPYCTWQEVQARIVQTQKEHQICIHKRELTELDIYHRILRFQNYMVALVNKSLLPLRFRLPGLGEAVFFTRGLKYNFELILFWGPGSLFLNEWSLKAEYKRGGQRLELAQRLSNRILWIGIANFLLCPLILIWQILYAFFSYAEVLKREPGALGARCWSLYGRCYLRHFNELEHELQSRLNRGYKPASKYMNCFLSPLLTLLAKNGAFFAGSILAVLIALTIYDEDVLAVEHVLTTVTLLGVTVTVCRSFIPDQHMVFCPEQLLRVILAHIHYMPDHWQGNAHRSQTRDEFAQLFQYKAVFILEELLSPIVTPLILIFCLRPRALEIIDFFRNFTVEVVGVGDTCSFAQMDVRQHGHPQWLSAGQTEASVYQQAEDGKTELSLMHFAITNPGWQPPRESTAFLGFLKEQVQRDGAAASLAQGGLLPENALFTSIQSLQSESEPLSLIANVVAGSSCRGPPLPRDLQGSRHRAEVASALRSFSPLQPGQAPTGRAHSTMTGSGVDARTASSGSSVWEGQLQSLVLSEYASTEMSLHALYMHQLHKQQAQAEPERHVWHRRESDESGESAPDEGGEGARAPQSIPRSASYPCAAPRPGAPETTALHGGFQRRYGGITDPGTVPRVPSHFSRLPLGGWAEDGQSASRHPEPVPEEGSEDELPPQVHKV
B2: Autophagy-related protein 2 homolog A (Homo sapiens), Q2TAZ0 (parent)
chain: B1 chain
partner: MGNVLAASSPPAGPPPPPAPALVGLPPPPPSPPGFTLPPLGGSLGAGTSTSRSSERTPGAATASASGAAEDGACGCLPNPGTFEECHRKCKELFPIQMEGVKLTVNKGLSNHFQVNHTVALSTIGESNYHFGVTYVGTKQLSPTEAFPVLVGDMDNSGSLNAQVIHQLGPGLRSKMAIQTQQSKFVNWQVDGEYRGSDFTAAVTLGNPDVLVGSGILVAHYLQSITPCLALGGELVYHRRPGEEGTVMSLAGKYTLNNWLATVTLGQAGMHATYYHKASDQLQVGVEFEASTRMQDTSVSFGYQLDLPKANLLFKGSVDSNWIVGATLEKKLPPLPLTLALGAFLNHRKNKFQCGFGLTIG

Variants of B1 are the subject of the first test. The following applies: with atg9a_human ATG9A.
With Y1395A;F1396A;S1397A, the “effect of a mutation on the interaction” value is reported as “disrupting interaction strength”.

The variants in another test derive from B2. The following applies: with tom40_human TOMM40, O96008.
Turning to L1798A;L1800A;L1804A, the “effect of a mutation on the interaction” value is reported as “disrupting interaction strength”.

On to R1777A;R1780A;R1784A;L1798A;L1800A;L1804A, for which the “effect of a mutation on the interaction” value is “decreasing interaction strength”.

For R1777A;R1780A;R1784A, the “effect of a mutation on the interaction” value was “decreasing interaction strength”.
